Consider 1 molecule from patent publication US10940198B2, “Herpes zoster vaccine composition” (MOGAM INSTITUTE FOR BIOMEDICAL RESEARCH, priority 2016, dated 2021).

One test has as its system VZV antigen. The test is described as follows: VZV antigen-specific IgG titer (ELISA) after immunization. To be noted: Experimental Example 10, FIG. 12; gE alone versus gE together with gI or IE63 antigen. It is filed as in vivo, C57BL/6 mice. The method, then: (§1) Since humans have a history of chickenpox infection, in order to mimic chickenpox infection in mice, live attenuated vaccine (LAV, 3000 pfu) was subcutaneously injected once to female C57BL/6 mice to perform primary immunization (LAV priming). After 28 days from the LAV priming (Day 0), various VZV vaccine compositions with or without VZV protein immunogen or adjuvant were administered by intramuscular injection to perform secondary immunization. […]
After performing the primary immunization and the secondary immunization, ELISA (enzyme-linked immunosorbant assay) was carried out for measuring VZV antigen-specific IgG titer. […] The HRP reaction was stopped by adding ELISA stop solution and optical density (OD) was measured using a spectrometer at a wavelength of 450 nm.
Various VZV antigen-specific IgG titers depending on the use of SLA-SE were determined in the same manner as in Experimental Example 2-1 except that any one of gE, gI, IE63, gB, gC, and gL was used as an antigen in the secondary immunization and SLA-SE was used as an adjuvant, and the results are summarized in FIGS. 8 and 9. […]

The next test deals with entire VZV (VZV lysate). Put plainly: IFN-γ ELISPOT assay, leukocyte stimulation with VZV lysate. It is filed as in vivo, C57BL/6 mice. To be noted: Experimental Example 10, FIG. 12; gE alone versus gE together with gI or IE63 antigen. Here is the method:
as §1
After performing the primary immunization and the secondary immunization, mouse IFN-γ ELISPOT (enzyme-linked immunospot) assay was carried out to confirm VZV antigen-specific cell-mediated immune response (CMI). […] The number of the resulting spots were counted with a device.
The gE protein, gE OLP, or VZV lysate-specific cell-mediated immune responses were measured according to the method of Experimental Example 2-2 (IFN-γ ELISPOT assay), and the experimental results are summarized in FIGS. 3, 4, and 5. […]
The gE protein, gE OLP, or VZV lysate-specific cell-mediated immune responses were measured according to the method of Experimental Example 2-2 (IFN-γ ELISPOT assay), and the experimental results are summarized in FIGS. 15, 16, and 17.

B1: gE antigen: VZV glycoprotein E of SEQ ID NO: 1 (protein)
chain: MGTVNKPVVGVLMGFGIITGTLRITNPVRASVLRYDDFHTDEDKLDTNSVYEPYYHSDHAESSWVNRGESSRKAYDHNSPYIWPRNDYDGFLENAHEHHGVYNQGRGIDSGERLMQPTQMSAQEDLGDDTGIHVIPTLNGDDRHKIVNVDQRQYGDVFKGDLNPKPQGQRLIEVSVEENHPFTLRAPIQRIYGVRYTETWSFLPSLTCTGDAAPAIQHICLKHTTCFQDVVVDVDCAENTKEDQLAEISYRFQGKKEADQPWIVVNTSTLFDELELDPPEIEPGVLKVLRTEKQYLGVYIWNMRGSDGTSTYATFLVTWKGDEKTRNPTPAVTPQPRGAEFHMWNYHSHVFSVGDTFSLAMHLQYKIHEAPFDLLLEWLYVPIDPTCQPMRLYSTCLYHPNAPQCLSHMNSGCTFTSPHLAQRVASTVYQNCEHADNYTAYCLGISHMEPSFGLILHDGGTTLKFVDTPESLSGLYVFVVYFNGHVEAVAYTVVSTVDHFVNAIEERGFPPTAGQPPATTKPKEITPVNPGTSPLLR
modifications: Human herpesvirus 3
Consider B1, for which the VZV-specific antibody response result in the test on VZV antigen is “not significantly different”. In the test with entire VZV (VZV lysate), the “VZV-specific T cell response” value is “not significantly different”.
